# IntAct's records for PubMed 9425168
# B1: Focal adhesion kinase 1 (Gallus gallus (Chicken)), Q00944 (parent)
# chain: MAAAYLDPNLNHTPSSSAKTHLGTGMERSPGAMERVLKVFHYFENSSEPTTWASIIRHGDATDVRGIIQKIVDCHKVKNVACYGLRLSHLQSEEVHWLHLDMGVSNVREKFELAHPPEEWKYELRIRYLPKGFLNQFTEDKPTLNFFYQQVKNDYMLEIADQVDQEIALKLGCLEIRRSYGEMRGNALEKKSNYEVLEKDVGLRRFFPKSLLDSVKAKTLRKLIQQTFRQFANLNREESILKFFEILSPVYRFDKECFKCALGSSWIISVELAIGPEEGISYLTDKGANPTHLADFNQVQTIQYSNSEDKDRKGMLQLKIAGAPEPLTVTAPSLTIAENMADLIDGYCRLVNGATQSFIIRPQKEGERALPSIPKLANNEKQGVRSHTVSVSETDDYAEIIDEEDTYTMPSTRDYEIQRERIELGRCIGEGQFGDVHQGIYMSPENPAMAVAIKTCKNCTSDSVREKFLQEALTMRQFDHPHIVKLIGVITENPVWIIMELCTLGELRSFLQVRKFSLDLASLILYAYQLSTALAYLESKRFVHRDIAARNVLVSATDCVKLGDFGLSRYMEDSTYYKASKGKLPIKWMAPESINFRRFTSASDVWMFGVCMWEILMHGVKPFQGVKNNDVIGRIENGERLPMPPNCPPTLYSLMTKCWAYDPSRRPRFTELKAQLSTILEEEKLQQEERMRMESRRQVTVSWDSGGSDEAPPKPSRPGYPSPRSSEGFYPSPQHMVQPNHYQVSGYSGSHGIPAMAGSIYPGQASLLDQTDSWNHRPQEVSAWQPNMEDSGTLDVRGMGQVLPTHLMEERLIRQQQEMEEDQRWLEKEERFLVMKPDVRLSRGSIEREDGGLQGPAGNQHIYQPVGKPDHAAPPKKPPRPGAPHLGSLASLNSPVDSYNEGVKIKPQEISPPPTANLDRSNDKVYENVTGLVKAVIEMSSKIQPAPPEEYVPMVKEVGLALRTLLATVDESLPVLPASTHREIEMAQKLLNSDLAELINKMKLAQQYVMTSLQQEYKKQMLTAAHALAVDAKNLLDVIDQARLKMISQSRPH
# Variants of: B1
# Conditions: with src_chick SRC
row,Variant,effect of a mutation on the interaction
1,Y397F,disrupting interaction

# Variants of: B1
# Conditions: with Src
row,Variant,effect of a mutation on the interaction
1,Y397F,decreasing interaction
